In IntAct's records for PubMed 17483306:

B1: ATPase 2, plasma membrane-type (Arabidopsis thaliana (Mouse-ear cress)), P19456 (parent)
chain: MSSLEDIKNETVDLEKIPIEEVFQQLKCSREGLTTQEGEDRIQIFGPNKLEEKKESKLLKFLGFMWNPLSWVMEMAAIMAIALANGDGRPPDWQDFVGIICLLVINSTISFIEENNAGNAAAALMAGLAPKTKVLRDGKWSEQEAAILVPGDIVSIKLGDIIPADARLLEGDPLKVDQSALTGESLPVTKHPGQEVFSGSTCKQGEIEAVVIATGVHTFFGKAAHLVDSTNQVGHFQKVLTAIGNFCICSIAIGMVIEIIVMYPIQRRKYRDGIDNLLVLLIGGIPIAMPTVLSVTMAIGSHRLSQQGAITKRMTAIEEMAGMDVLCSDKTGTLTLNKLSVDKNLVEVFCKGVEKDQVLLFAAMASRVENQDAIDAAMVGMLADPKEARAGIREVHFLPFNPVDKRTALTYIDGSGNWHRVSKGAPEQILELAKASNDLSKKVLSIIDKYAERGLRSLAVARQVVPEKTKESPGAPWEFVGLLPLFDPPRHDSAETIRRALNLGVNVKMITGDQLAIGKETGRRLGMGTNMYPSSALLGTHKDANLASIPVEELIEKADGFAGVFPEHKYEIVKKLQERKHIVGMTGDGVNDAPALKKADIGIAVADATDAARGASDIVLTEPGLSVIISAVLTSRAIFQRMKNYTIYAVSITIRIVFGFMLIALIWEFDFSAFMVLIIAILNDGTIMTISKDRVKPSPTPDSWKLKEIFATGVVLGGYQAIMTVIFFWAAHKTDFFSDTFGVRSIRDNNHELMGAVYLQVSIISQALIFVTRSRSWSFVERPGALLMIAFLIAQLIATLIAVYANWEFAKIRGIGWGWAGVIWLYSIVTYFPLDVFKFAIRYILSGKAWLNLFENKTAFTMKKDYGKEEREAQWALAQRTLHGLQPKEAVNIFPEKGSYRELSEIAEQAKRRAEIARLRELHTLKGHVESVVKLKGLDIETPSHYTV
partner: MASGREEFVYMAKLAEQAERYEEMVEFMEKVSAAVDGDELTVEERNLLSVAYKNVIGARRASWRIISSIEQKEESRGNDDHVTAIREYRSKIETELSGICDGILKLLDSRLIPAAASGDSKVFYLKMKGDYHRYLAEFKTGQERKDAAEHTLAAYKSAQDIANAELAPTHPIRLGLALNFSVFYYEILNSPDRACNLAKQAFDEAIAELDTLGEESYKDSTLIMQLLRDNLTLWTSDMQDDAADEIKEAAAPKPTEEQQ
B2: ATPase 2, plasma membrane-type (Arabidopsis thaliana (Mouse-ear cress)), P19456 (parent)
chain: B1 chain
partner: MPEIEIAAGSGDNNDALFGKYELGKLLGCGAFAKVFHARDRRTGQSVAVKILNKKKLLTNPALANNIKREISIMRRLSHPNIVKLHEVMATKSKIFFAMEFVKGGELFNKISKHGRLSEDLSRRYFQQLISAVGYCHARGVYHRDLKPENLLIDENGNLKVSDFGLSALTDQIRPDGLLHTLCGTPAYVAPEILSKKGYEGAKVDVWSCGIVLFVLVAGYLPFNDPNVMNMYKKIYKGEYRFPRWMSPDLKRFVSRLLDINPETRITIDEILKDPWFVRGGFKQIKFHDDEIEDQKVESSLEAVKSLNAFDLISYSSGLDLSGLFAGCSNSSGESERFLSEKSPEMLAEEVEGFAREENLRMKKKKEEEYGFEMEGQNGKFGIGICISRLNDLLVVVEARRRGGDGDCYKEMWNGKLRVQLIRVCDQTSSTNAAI

Variants of: B1
Details: with 14332_arath GRF2, Q01525

Row | Variant | effect of a mutation on the interaction
1 | S931D | disrupting interaction
2 | S931A | increasing interaction
3 | R913A;S931D | decreasing interaction

Variants of: B2
Details: with cipkb_arath CIPK11, O22932

Row | Variant | effect of a mutation on the interaction
4 | S931A | disrupting interaction
